The assay deals with detyrosinated microtubules (rat cardiomyocytes) (rat). Put plainly: cell-based or functional assay.

Consider “human tubulin tyrosine ligase (TTL) (from UniProt Q8NG68 1-377)”, for which the Detyr (% cell area), immunofluorescence, TTL overexpressing cells (null: 43.9) is 12.9 % cell area.
